Reference: publication doi:10.1101/2025.06.02.657420, “Structure of the energy converting methyltransferase (Mtr) of Methanosarcina mazei in complex with an oxygen-stress responsive small protein” (bioRxiv, 2025)

T1: MtrE carrying a C-terminal TwinStrep-tag (Methanosarcina mazei, UniProt P80651 1-304)
T1 construct: MtrE of the Mtr complex, Methanosarcina mazei DSM 3647, locus MM_1547; the mtrE gene was amplified from chromosomal DNA with primers from the start codon to the last codon before the tag; The plasmid was put into wild-type M. mazei, so untagged chromosomal MtrE may stand in the trimeric complex beside the tagged copy; also called MtrE-TS; TS-tagged MtrE; source: M. mazei DSM 3647, from shuttle …
T1 sequence (looked up): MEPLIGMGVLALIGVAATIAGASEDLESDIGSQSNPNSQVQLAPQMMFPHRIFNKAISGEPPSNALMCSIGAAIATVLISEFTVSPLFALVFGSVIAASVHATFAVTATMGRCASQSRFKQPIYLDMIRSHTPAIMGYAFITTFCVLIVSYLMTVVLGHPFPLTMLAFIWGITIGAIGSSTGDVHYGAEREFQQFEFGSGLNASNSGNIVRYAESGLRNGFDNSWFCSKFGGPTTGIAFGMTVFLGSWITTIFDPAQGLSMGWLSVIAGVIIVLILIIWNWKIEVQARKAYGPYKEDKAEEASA


Key:
[1] = biological target: T1, MtrE carrying a C-terminal TwinStrep-tag; experiment: cryo-EM structure; single-particle cryo-EM of the native Mtr complex purified from methanol-grown M. mazei through MtrE-TwinStrep (Strep-Tactin), LMNG-solubilised, 6 mg/mL with 1 mM CHAPSO; buffer 50 mM MOPS/NaOH pH 7.0, 10 mM MgCl2, 150 mM NaCl; C1 consensus map with local refinements of MtrA and MtrH; settings: both partners purified
[2] = biological target: the molecule itself; experiment: as above

binding result [1] | Binder | binding result [2]
binds | MtrF, subunit F of the Mtr complex (natural protein, UniProt P80654 1-72, looked up, MtrF of the Mtr complex, Methanosarcina mazei DSM 3647 (Goe1); single-spanning stalk subunit; Three copies stand in the whole complex; also called chain F; helix F; source: endogenous, M. mazei membranes, LMNG-solubilised, co-purified with MtrE-TwinStrep on Strep-Tactin) MAEEHEKGVPMVLAPQMGAIDATVESIRYRAQLIARNQKLDSGVAATGIIGFAAGFLFSLLMVIVLPVAVGL | –
binds | MtrB, subunit B of the Mtr complex (natural protein, UniProt P80655 1-108, looked up, MtrB of the Mtr complex, Methanosarcina mazei DSM 3647 (Goe1); single-spanning stalk subunit; Three copies stand in the whole complex; also called chain B; helix B; source: endogenous, M. mazei membranes, LMNG-solubilised, co-purified with MtrE-TwinStrep on Strep-Tactin) MSIVRIAPEINLVMDTESGTVTQERKDSIQYSMEPVFERVDKLDAIADDLVNSLSPSKPLLNTWPGRENTSYIAGIYSNSFYGIIVGLAFSGLLALIIYITRLMGGVV | –
– | MtrG, subunit G of the Mtr complex (natural protein, UniProt P80656 1-72, looked up, MtrG of the Mtr complex, Methanosarcina mazei DSM 3647 (Goe1); single-spanning stalk subunit; Three copies stand in the whole complex and form a three-helix bundle in the membrane plane; also called chain G; source: endogenous, M. mazei membranes, LMNG-solubilised, co-purified with MtrE-TwinStrep on Strep-Tactin) MDGKAPAAFVEPGEFNEVMKRLDQIDEKVEFVNSEVAQRIGKKVGRDIGILYGGVIGLLLFLIYVQISSMFM | binds
